Paper PMC9288512
Changes are numbered by the printed parent chain. Names and notes keep the numbering of the source.

B1: VHH-B11 (monovalent camelid nanobody against hPCSK9) FR1:Q1E; FR1:Q5L; FR1:S11L; FR1:A14P; FR1:T23A; FR1:V24A; FR3:V87L; FR3:K95R; FR3:P96A; FR3:M101V (protein)
chain: EVQLLESGGGLVQPGGSLRLSCAASGYTYSSNCMGWFRQAPGKEHEGVASIYIGGGSTYYADSVKGRFTISQDNAKNTLYLQMNSLRAEDTAVYYCAVGCQGLVDFGYWDQGTQVTVSS
B2: VHH-B11 (monovalent camelid nanobody against hPCSK9) FR1:Q1E; FR1:Q5L; FR1:S11L; FR1:A14P; FR1:T23A; FR1:V24A; FR2:A54S; FR3:A83S; FR3:K95R; FR3:P96A; FR3:M101V (protein)
chain: B1 chain with A49S, A75S, L79V
B3: VHH-B11 (monovalent camelid nanobody against hPCSK9) FR1:Q1E; FR1:Q5L; FR1:S11L; FR1:A14P; FR1:T23A; FR1:V24A; FR2:A54S; FR3:A83S; FR3:V87L; FR3:K95R; … (protein)
chain: B1 chain with A49S, A75S
B4: VHH-B11 (monovalent camelid nanobody against hPCSK9) FR1:Q1E; FR1:Q5L; FR1:S11L; FR1:A14P; FR2:A54S; FR3:Q80R; FR3:A83S; FR3:V87L; FR3:K95R; FR3:P96A; FR3:M101V (protein)
chain: B1 chain with A23T, A24V, A49S, Q72R, A75S
B5: VHH-B11 (monovalent camelid nanobody against hPCSK9) FR1:Q1E; FR1:Q5L; FR1:S11L; FR1:A14P; FR1:T23A; FR1:V24A; FR2:A54S; FR3:V87L; FR3:K95R; FR3:P96A; FR3:M101V (protein)
chain: B1 chain with A49S

molecular target: recombinant human proprotein convertase subtilisin/kexin 9 (hPCSK9), his-tagged, Q8NBP7; experiment: SPR; conditions: chain shown with the change; 25 ℃; parent: ~5.013
Sequence (Q8NBP7 153-692): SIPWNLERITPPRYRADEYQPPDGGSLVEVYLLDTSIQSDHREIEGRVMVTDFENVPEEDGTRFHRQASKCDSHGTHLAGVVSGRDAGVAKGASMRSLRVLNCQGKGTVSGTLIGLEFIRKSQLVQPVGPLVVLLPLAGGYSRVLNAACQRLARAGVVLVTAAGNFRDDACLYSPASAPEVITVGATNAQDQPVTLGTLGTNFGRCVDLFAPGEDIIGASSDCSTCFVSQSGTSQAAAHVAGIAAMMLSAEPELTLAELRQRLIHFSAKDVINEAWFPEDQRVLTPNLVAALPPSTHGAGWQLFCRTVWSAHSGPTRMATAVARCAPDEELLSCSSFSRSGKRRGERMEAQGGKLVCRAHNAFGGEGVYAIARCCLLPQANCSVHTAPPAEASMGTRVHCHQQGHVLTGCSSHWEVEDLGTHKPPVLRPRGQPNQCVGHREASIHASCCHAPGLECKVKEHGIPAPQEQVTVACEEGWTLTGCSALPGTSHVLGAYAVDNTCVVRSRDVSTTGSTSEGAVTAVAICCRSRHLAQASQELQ

Kd [nM]	Binder
3.22	B1
11.3	B2
> 1000	B3
7.99	B4
> 1000	B5
